From the Human Domainome abundance scans (Beltran et al. 2025)
± gives the uncertainty stated by the source.

B1: Cold shock protein CspB, residues 1 to 66; numbered along this chain, P41016 (parent)
chain: MQRGKVKWFNNEKGYGFIEVEGGSDVFVHFTAIQGEGFKTLEEGQEVSFEIVQGNRGPQAANVVKL

Variants of: B1
Assay: abundance fitness (aPCA) (normalised: wild type 0, dead -1); higher = more abundant; growth selection in yeast, the domain comes from the species named
Conditions: Bacillus caldolyticus

V64S and E36T are within error of each other in abundance fitness: -0.019 ± 0.04 for the first, -0.006 ± 0.044 for the second.

E36V and E36Q are within error of each other in abundance fitness: -0.003 ± 0.033 for the first, 0.021 ± 0.079 for the second.

E36L and E50Q are within error of each other in abundance fitness: -0.024 ± 0.031 for the first, 0 ± 0.052 for the second.

E50T and E50V are within error of each other in abundance fitness: 0.01 ± 0.06 for the first, -0.018 ± 0.036 for the second.

A61Y and G37Q are within error of each other in abundance fitness: 0.015 ± 0.076 for the first, -0.078 ± 0.056 for the second.

Compared with G37W, G37E is higher in abundance fitness: -0.141 ± 0.041 for the first, -0.05 ± 0.043 for the second.

G37V and L66G are within error of each other in abundance fitness: -0.086 ± 0.033 for the first, 0.005 ± 0.08 for the second.

L66R and L66T are within error of each other in abundance fitness: -0.018 ± 0.042 for the first, -0.023 ± 0.057 for the second.

N55P and N55I are within error of each other in abundance fitness: -0.026 ± 0.15 for the first, 0.059 ± 0.13 for the second.

N55G and F17A are within error of each other in abundance fitness: -0.064 ± 0.12 for the first, -0.159 ± 0.039 for the second.

F17K and F17Q are within error of each other in abundance fitness: -0.138 ± 0.07 for the first, -0.161 ± 0.042 for the second.

Going from F17S to E12R, the abundance fitness rises from -0.171 ± 0.029 to 0.049 ± 0.034.

E12M and E12G are within error of each other in abundance fitness: 0.004 ± 0.043 for the first, -0.02 ± 0.041 for the second.

E12W and E12D are within error of each other in abundance fitness: 0.005 ± 0.04 for the first, -0.021 ± 0.049 for the second.

E12L and E12Q are the same in abundance fitness: 0.017 ± 0.029 for the first, 0.017 ± 0.057 for the second.

Q34T and Q34V are within error of each other in abundance fitness: -0.008 ± 0.051 for the first, 0.048 ± 0.045 for the second.

Q34S and Q34P are within error of each other in abundance fitness: -0.003 ± 0.047 for the first, -0.062 ± 0.04 for the second.

G54C and E19S are within error of each other in abundance fitness: -0.013 ± 0.047 for the first, 0.016 ± 0.031 for the second.

E19C and E19M are within error of each other in abundance fitness: 0.021 ± 0.06 for the first, 0 ± 0.043 for the second.

Going from E19Q to V47M, the abundance fitness falls from 0.009 ± 0.057 to -0.702 ± 0.48.

Compared with L41E, L41T is higher in abundance fitness: -0.482 ± 0.044 for the first, -0.299 ± 0.037 for the second.

L41S and L41N are within error of each other in abundance fitness: -0.433 ± 0.039 for the first, -0.515 ± 0.062 for the second.

Compared with L41D, L41V is higher in abundance fitness: -0.554 ± 0.069 for the first, -0.042 ± 0.033 for the second.

N11F and N11I are within error of each other in abundance fitness: -0.052 ± 0.07 for the first, -0.065 ± 0.083 for the second.

F38L and F38Q are within error of each other in abundance fitness: -0.086 ± 0.027 for the first, -0.005 ± 0.064 for the second.

F38I and F38G are within error of each other in abundance fitness: -0.041 ± 0.067 for the first, -0.048 ± 0.032 for the second.

K65D and K65T are within error of each other in abundance fitness: -0.019 ± 0.082 for the first, -0.003 ± 0.055 for the second.

K65A and K65Q are within error of each other in abundance fitness: 0.002 ± 0.051 for the first, -0.023 ± 0.06 for the second.

Going from K65Y to K65S, the abundance fitness rises from -0.13 ± 0.047 to -0.015 ± 0.035.

K65P and K65L are within error of each other in abundance fitness: 0.025 ± 0.064 for the first, -0.052 ± 0.037 for the second.

F27A and F27G are within error of each other in abundance fitness: -0.206 ± 0.037 for the first, -0.229 ± 0.031 for the second.

Compared with F27N, F27E is higher in abundance fitness: -0.335 ± 0.1 for the first, -0.183 ± 0.041 for the second.

G57Y and G57E are within error of each other in abundance fitness: -0.127 ± 0.058 for the first, -0.213 ± 0.045 for the second.

R56H and R56T are within error of each other in abundance fitness: -0.069 ± 0.059 for the first, -0.142 ± 0.055 for the second.

Going from R56N to R56D, the abundance fitness falls from 0.018 ± 0.1 to -0.175 ± 0.079.

Compared with R56W, F9T is lower in abundance fitness: -0.207 ± 0.045 for the first, -0.306 ± 0.038 for the second.

First: F9A
Second: F9R
The abundance fitness of the first is higher: -0.303 ± 0.037 for the first, -0.583 ± 0.03 for the second.

F30N and F30M are within error of each other in abundance fitness: -0.07 ± 0.077 for the first, -0.169 ± 0.047 for the second.

F30A and F30H are within error of each other in abundance fitness: -0.035 ± 0.047 for the first, -0.023 ± 0.067 for the second.

F30V and E42A are within error of each other in abundance fitness: -0.049 ± 0.047 for the first, 0.018 ± 0.041 for the second.

H29Q and H29N are within error of each other in abundance fitness: -0.174 ± 0.15 for the first, -0.228 ± 0.12 for the second.

E46A and E46K are within error of each other in abundance fitness: -0.018 ± 0.052 for the first, -0.004 ± 0.055 for the second.

E46V and S48V are within error of each other in abundance fitness: -0.031 ± 0.037 for the first, -0.059 ± 0.041 for the second.

Going from S48C to G4E, the abundance fitness falls from -0.047 ± 0.061 to -0.717 ± 0.048.

Compared with G4F, G23R is higher in abundance fitness: -0.866 ± 0.035 for the first, 0.028 ± 0.037 for the second.

G23W and G23I are within error of each other in abundance fitness: -0.057 ± 0.04 for the first, -0.041 ± 0.055 for the second.

G23T and P58G are within error of each other in abundance fitness: 0.003 ± 0.052 for the first, -0.082 ± 0.039 for the second.

P58M and V52A are within error of each other in abundance fitness: 0.006 ± 0.041 for the first, 0.029 ± 0.037 for the second.

V52F and V52M are within error of each other in abundance fitness: -0.029 ± 0.064 for the first, 0.038 ± 0.059 for the second.

V52W and V52N are within error of each other in abundance fitness: -0.053 ± 0.048 for the first, -0.02 ± 0.093 for the second.

V6P and V6Q are within error of each other in abundance fitness: -0.801 ± 0.081 for the first, -0.824 ± 0.066 for the second.

Going from V6W to V6I, the abundance fitness rises from -0.756 ± 0.058 to -0.017 ± 0.04.

V6M and K7Q are within error of each other in abundance fitness: -0.104 ± 0.059 for the first, -0.07 ± 0.051 for the second.

Compared with K7P, K7Y is higher in abundance fitness: -0.817 ± 0.057 for the first, -0.316 ± 0.042 for the second.

G35E and G35V are within error of each other in abundance fitness: -0.001 ± 0.038 for the first, -0.033 ± 0.037 for the second.

G35F and G35N are within error of each other in abundance fitness: -0.067 ± 0.059 for the first, -0.06 ± 0.11 for the second.

G35P and A32C are within error of each other in abundance fitness: -0.172 ± 0.045 for the first, -0.083 ± 0.048 for the second.

A32P and G14Y are within error of each other in abundance fitness: -0.507 ± 0.043 for the first, -0.445 ± 0.07 for the second.

First: G14T
Second: G14P
The abundance fitness of the first is higher: -0.383 ± 0.039 for the first, -0.91 ± 0.073 for the second.

Compared with G14Q, G14S is higher in abundance fitness: -0.196 ± 0.044 for the first, -0.123 ± 0.029 for the second.

T31H and T31N are within error of each other in abundance fitness: -0.074 ± 0.077 for the first, -0.127 ± 0.066 for the second.

Going from T31Q to T31I, the abundance fitness falls from -0.132 ± 0.061 to -0.314 ± 0.053.

K5C and K5Y are within error of each other in abundance fitness: -0.003 ± 0.049 for the first, -0.072 ± 0.061 for the second.

Going from K5G to E21H, the abundance fitness rises from -0.222 ± 0.033 to 0.027 ± 0.052.

E21V and Q53T are within error of each other in abundance fitness: 0.013 ± 0.035 for the first, 0.018 ± 0.044 for the second.

Q53K and Q53L are within error of each other in abundance fitness: -0.033 ± 0.052 for the first, -0.027 ± 0.028 for the second.

First: I18P
Second: I18L
The abundance fitness of the first is lower: -1.19 ± 0.14 for the first, 0.015 ± 0.031 for the second.

Going from I18T to Q59Y, the abundance fitness rises from -0.721 ± 0.048 to -0.012 ± 0.065.

Q59I and Q59H are within error of each other in abundance fitness: -0.08 ± 0.063 for the first, -0.02 ± 0.068 for the second.

Q59A and V20H are within error of each other in abundance fitness: -0.003 ± 0.031 for the first, 0.094 ± 0.14 for the second.

V20A and V20S are within error of each other in abundance fitness: -0.003 ± 0.035 for the first, -0.011 ± 0.035 for the second.

I33K and I33S are within error of each other in abundance fitness: -0.456 ± 0.056 for the first, -0.422 ± 0.031 for the second.

First: V26G
Second: V26E
The abundance fitness of the first is lower: -0.573 ± 0.036 for the first, -0.372 ± 0.043 for the second.

R3K and R3D are within error of each other in abundance fitness: -0.046 ± 0.055 for the first, -0.023 ± 0.069 for the second.

R3E and R3A are within error of each other in abundance fitness: -0.019 ± 0.041 for the first, -0.032 ± 0.034 for the second.

R3S and Q45I are within error of each other in abundance fitness: -0.039 ± 0.031 for the first, -0.09 ± 0.075 for the second.

Q45M and Q45R are within error of each other in abundance fitness: -0.032 ± 0.057 for the first, -0.039 ± 0.035 for the second.

Q45V and Q45S are within error of each other in abundance fitness: -0.063 ± 0.039 for the first, -0.029 ± 0.038 for the second.

F49Q and F49N are within error of each other in abundance fitness: -0.893 ± 0.094 for the first, -1.05 ± 0.21 for the second.

Going from F49V to F49E, the abundance fitness falls from -0.076 ± 0.03 to -0.965 ± 0.11.

First: F49D
Second: F49H
The abundance fitness of the first is lower: -1.08 ± 0.16 for the first, -0.445 ± 0.09 for the second.

T40S and T40Q are within error of each other in abundance fitness: -0.023 ± 0.034 for the first, -0.041 ± 0.041 for the second.

T40L and T40G are within error of each other in abundance fitness: -0.087 ± 0.026 for the first, -0.048 ± 0.042 for the second.

Work on T40D yielded an abundance fitness of -0.112 ± 0.052.
